Source: the supplement of paper PMC9112550, “Optimization of the antimicrobial peptide Bac7 by deep mutational scanning” (BMC Biology, 2022)

System: Escherichia coli TOP10
Assay: shrunken log2 fold change of peptide-encoding DNA abundance (4.5 h post-induction vs induction); higher = less antimicrobial activity (less host growth inhibition)
Details: time post-induction: 4.5 h; library: site-saturation at positions 5, 18, 19, 20
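Further: peptides expressed intracellularly from a pBAD plasmid library in pooled LB shake-flask culture, induced with 0.3% L-arabinose, DNA abundance read by NGS, three biological replicates, DESeq2 with apeglm shrinkage.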

| Sequence | shrunken log2 fold change |
| --- | --- |
| RRIRHRPPRLPRPRPRPNAEPRP | -0.0088 |
| RRIRMRPPRLPRPRPRPNRYPRP | 0.166 |
| RRIRTRPPRLPRPRPRPVEQPRP | 0.112 |
| RRIRIRPPRLPRPRPRPTTEPRP | 0.086 |
| RRIRSRPPRLPRPRPRPCKMPRP | -0.215 |
| RRIRQRPPRLPRPRPRPDKQPRP | 0.0312 |
| RRIRWRPPRLPRPRPRPSWGPRP | 0.121 |
| RRIRLRPPRLPRPRPRPHLFPRP | -0.0266 |
| RRIRFRPPRLPRPRPRPQTEPRP | -0.00927 |
| RRIRQRPPRLPRPRPRPCLLPRP | -2.33 |
| RRIRHRPPRLPRPRPRPNGAPRP | -0.18 |
| RRIRYRPPRLPRPRPRPFMAPRP | -0.773 |
| RRIRARPPRLPRPRPRPTKTPRP | 0.247 |
| RRIRERPPRLPRPRPRPYNDPRP | 0.0352 |
| RRIRERPPRLPRPRPRPWGYPRP | -0.279 |
| RRIRTRPPRLPRPRPRPEAMPRP | 0.0163 |
| RRIRTRPPRLPRPRPRPDKNPRP | -0.143 |
| RRIRNRPPRLPRPRPRPKYMPRP | -0.854 |
| RRIRARPPRLPRPRPRPPLYPRP | 0.606 |
| RRIRMRPPRLPRPRPRPRRHPRP | 1.02 |
| RRIRHRPPRLPRPRPRPMQPPRP | 0.172 |
| RRIRFRPPRLPRPRPRPNTEPRP | -0.479 |
| RRIRTRPPRLPRPRPRPKTQPRP | 0.19 |
| RRIRARPPRLPRPRPRPCFRPRP | -0.0247 |
| RRIRERPPRLPRPRPRPVGTPRP | 0.0306 |

| Sequence | shrunken log2 fold change |
| --- | --- |
| RRIRLRPPRLPRPRPRPDREPRP | 0.0246 |
| RRIRMRPPRLPRPRPRPCASPRP | 0.0954 |
| RRIRPRPPRLPRPRPRPRFKPRP | 0.166 |
| RRIRVRPPRLPRPRPRPPTLPRP | 0.252 |
| RRIRLRPPRLPRPRPRPFPYPRP | 0.015 |
| RRIRSRPPRLPRPRPRPDNPPRP | -0.0934 |
| RRIRKRPPRLPRPRPRPHHGPRP | -0.11 |
| RRIRFRPPRLPRPRPRPSCGPRP | -0.235 |
| RRIRKRPPRLPRPRPRPSWNPRP | -0.15 |
| RRIRIRPPRLPRPRPRPHWQPRP | 1.4 |
| RRIRIRPPRLPRPRPRPEVGPRP | 0.0138 |
| RRIRNRPPRLPRPRPRPVEQPRP | 0.0207 |
| RRIRKRPPRLPRPRPRPKDTPRP | 0.26 |
| RRIRWRPPRLPRPRPRPKIMPRP | -0.198 |
| RRIRQRPPRLPRPRPRPHKRPRP | -0.218 |
| RRIRIRPPRLPRPRPRPFTMPRP | -0.79 |
| RRIRWRPPRLPRPRPRPTIVPRP | -0.33 |
| RRIRERPPRLPRPRPRPMINPRP | -0.0967 |
| RRIRWRPPRLPRPRPRPQATPRP | 0.381 |
| RRIRRRPPRLPRPRPRPLDGPRP | 0.0894 |
| RRIRDRPPRLPRPRPRPSIMPRP | -0.0808 |
| RRIRGRPPRLPRPRPRPPCKPRP | 0.339 |
| RRIRVRPPRLPRPRPRPYHGPRP | -0.237 |
| RRIRWRPPRLPRPRPRPLHVPRP | 0.407 |
| RRIRQRPPRLPRPRPRPELVPRP | -0.142 |

| Sequence | shrunken log2 fold change |
| --- | --- |
| RRIRCRPPRLPRPRPRPNNYPRP | -0.81 |
| RRIRMRPPRLPRPRPRPVFAPRP | 0.378 |
| RRIRIRPPRLPRPRPRPCGHPRP | 0.00489 |
| RRIRCRPPRLPRPRPRPCMPPRP | -0.66 |
| RRIRERPPRLPRPRPRPGYSPRP | -0.00468 |
| RRIRQRPPRLPRPRPRPNCFPRP | 0.0427 |
| RRIRGRPPRLPRPRPRPRIDPRP | 0.731 |
| RRIRKRPPRLPRPRPRPRWKPRP | 0.702 |
| RRIRIRPPRLPRPRPRPVPSPRP | -0.217 |
| RRIRMRPPRLPRPRPRPEAVPRP | 3.72 |
| RRIRARPPRLPRPRPRPMEFPRP | -0.117 |
| RRIRCRPPRLPRPRPRPIEMPRP | -0.0735 |
| RRIRHRPPRLPRPRPRPYVQPRP | -1.29 |
| RRIRFRPPRLPRPRPRPQMLPRP | -0.179 |
| RRIRERPPRLPRPRPRPVDRPRP | 0.0364 |
| RRIRARPPRLPRPRPRPYVTPRP | -0.658 |
| RRIRKRPPRLPRPRPRPITQPRP | -0.00651 |
| RRIRIRPPRLPRPRPRPNHHPRP | -0.868 |
| RRIRYRPPRLPRPRPRPNVYPRP | -1.2 |
| RRIRARPPRLPRPRPRPSDRPRP | -0.0583 |
| RRIRGRPPRLPRPRPRPLVDPRP | 1.1 |
| RRIRGRPPRLPRPRPRPTTTPRP | 1.07 |
| RRIRVRPPRLPRPRPRPAPYPRP | -0.00665 |
| RRIRDRPPRLPRPRPRPHTAPRP | -0.0443 |
| RRIRGRPPRLPRPRPRPMHWPRP | 0.382 |

| Sequence | shrunken log2 fold change |
| --- | --- |
| RRIRMRPPRLPRPRPRPTMKPRP | 0.482 |
| RRIRKRPPRLPRPRPRPCPKPRP | 0.29 |
| RRIRDRPPRLPRPRPRPESRPRP | 0.0324 |
| RRIRYRPPRLPRPRPRPLLHPRP | -0.541 |
| RRIRNRPPRLPRPRPRPDPNPRP | -0.488 |
| RRIRERPPRLPRPRPRPYWEPRP | -0.219 |
| RRIRERPPRLPRPRPRPHTTPRP | -0.205 |
| RRIRVRPPRLPRPRPRPNGPPRP | 0.144 |
| RRIRGRPPRLPRPRPRPSKGPRP | -0.403 |
| RRIRKRPPRLPRPRPRPDADPRP | 0.163 |
| RRIRIRPPRLPRPRPRPHEWPRP | 0.0272 |
| RRIRDRPPRLPRPRPRPYDKPRP | -0.149 |
| RRIRFRPPRLPRPRPRPIYHPRP | -0.701 |
| RRIRSRPPRLPRPRPRPSFRPRP | -0.357 |
| RRIRCRPPRLPRPRPRPDKKPRP | -0.132 |
| RRIRRRPPRLPRPRPRPTRWPRP | 0.799 |
| RRIRYRPPRLPRPRPRPMMPPRP | -0.0554 |
| RRIRVRPPRLPRPRPRPNGAPRP | -0.0189 |
| RRIRLRPPRLPRPRPRPVGAPRP | 0.349 |
| RRIRRRPPRLPRPRPRPPCMPRP | 0.404 |
| RRIRKRPPRLPRPRPRPRIPPRP | 0.11 |
| RRIRDRPPRLPRPRPRPHNWPRP | -0.144 |
| RRIRPRPPRLPRPRPRPWFFPRP | -0.185 |
| RRIRGRPPRLPRPRPRPHVEPRP | 0.36 |
| RRIRFRPPRLPRPRPRPKRWPRP | 0.0556 |

| Sequence | shrunken log2 fold change |
| --- | --- |
| RRIRPRPPRLPRPRPRPPLLPRP | 0.081 |
| RRIRRRPPRLPRPRPRPRPYPRP | 1.17 |
| RRIRCRPPRLPRPRPRPAFNPRP | -0.23 |
| RRIRERPPRLPRPRPRPQNQPRP | -0.612 |
| RRIRWRPPRLPRPRPRPNHCPRP | -0.0525 |
| RRIRGRPPRLPRPRPRPIIDPRP | 0.859 |
| RRIRWRPPRLPRPRPRPGYGPRP | -0.0305 |
| RRIRTRPPRLPRPRPRPMFMPRP | 0.000513 |
| RRIRLRPPRLPRPRPRPYYMPRP | -0.671 |
| RRIRRRPPRLPRPRPRPEWPPRP | 0.387 |
| RRIRCRPPRLPRPRPRPPRLPRP | 0.873 |
| RRIRVRPPRLPRPRPRPLTEPRP | -0.503 |
| RRIRHRPPRLPRPRPRPCQYPRP | 0.0163 |
| RRIRMRPPRLPRPRPRPTNKPRP | 0.111 |
| RRIRFRPPRLPRPRPRPQVLPRP | -0.00198 |
| RRIRVRPPRLPRPRPRPGYWPRP | 0.0156 |
| RRIRARPPRLPRPRPRPLCMPRP | -0.125 |
| RRIRSRPPRLPRPRPRPYPSPRP | -0.203 |
| RRIRRRPPRLPRPRPRPSEGPRP | 0.163 |
| RRIRHRPPRLPRPRPRPFHDPRP | -0.152 |
| RRIRQRPPRLPRPRPRPVDPPRP | -0.0233 |
| RRIRMRPPRLPRPRPRPKAIPRP | 0.417 |
| RRIRPRPPRLPRPRPRPLCNPRP | -0.05 |
| RRIRKRPPRLPRPRPRPNVDPRP | 0.17 |
| RRIRLRPPRLPRPRPRPRRQPRP | 0.234 |

| Sequence | shrunken log2 fold change |
| --- | --- |
| RRIRWRPPRLPRPRPRPIYHPRP | -0.305 |
| RRIRERPPRLPRPRPRPFRWPRP | 0.0329 |
| RRIRMRPPRLPRPRPRPCVVPRP | -0.0402 |
| RRIRIRPPRLPRPRPRPKQGPRP | 0.391 |
| RRIRNRPPRLPRPRPRPIPTPRP | -0.0847 |
| RRIRPRPPRLPRPRPRPANNPRP | -0.353 |
| RRIRMRPPRLPRPRPRPDGEPRP | 0.857 |
| RRIRMRPPRLPRPRPRPWHFPRP | 0.201 |
| RRIRQRPPRLPRPRPRPICRPRP | 0.0232 |
| RRIRYRPPRLPRPRPRPECGPRP | -0.114 |
| RRIRYRPPRLPRPRPRPDAKPRP | -0.118 |
| RRIRPRPPRLPRPRPRPPFFPRP | 0.415 |
| RRIRFRPPRLPRPRPRPVRTPRP | 0.227 |
| RRIRCRPPRLPRPRPRPYSRPRP | -0.0442 |
| RRIRHRPPRLPRPRPRPAKGPRP | 0.0449 |
| RRIRCRPPRLPRPRPRPRWMPRP | 0.346 |
| RRIRWRPPRLPRPRPRPTFEPRP | 0.13 |
| RRIRNRPPRLPRPRPRPHKWPRP | -0.285 |
| RRIRSRPPRLPRPRPRPFCLPRP | -0.302 |
| RRIRSRPPRLPRPRPRPDRTPRP | -0.256 |
| RRIRYRPPRLPRPRPRPNTAPRP | -0.0149 |
| RRIRGRPPRLPRPRPRPWMEPRP | 0.563 |
| RRIRVRPPRLPRPRPRPGIGPRP | 0.344 |
| RRIRSRPPRLPRPRPRPCYRPRP | 0.0109 |
| RRIRQRPPRLPRPRPRPREQPRP | -0.00783 |
